According to patent publication US20030091557A1 (Human Genome Sciences, published 2003):
Bridges are numbered along the chain shown (N, C = ends).

Molecular target: recombinant human ACE-2 (human, UniProt Q9BYF1 18-740, limits assumed)
Test: cell-based or functional assay

Sequence of recombinant human ACE-2 (Q9BYF1 18-740 limits assumed): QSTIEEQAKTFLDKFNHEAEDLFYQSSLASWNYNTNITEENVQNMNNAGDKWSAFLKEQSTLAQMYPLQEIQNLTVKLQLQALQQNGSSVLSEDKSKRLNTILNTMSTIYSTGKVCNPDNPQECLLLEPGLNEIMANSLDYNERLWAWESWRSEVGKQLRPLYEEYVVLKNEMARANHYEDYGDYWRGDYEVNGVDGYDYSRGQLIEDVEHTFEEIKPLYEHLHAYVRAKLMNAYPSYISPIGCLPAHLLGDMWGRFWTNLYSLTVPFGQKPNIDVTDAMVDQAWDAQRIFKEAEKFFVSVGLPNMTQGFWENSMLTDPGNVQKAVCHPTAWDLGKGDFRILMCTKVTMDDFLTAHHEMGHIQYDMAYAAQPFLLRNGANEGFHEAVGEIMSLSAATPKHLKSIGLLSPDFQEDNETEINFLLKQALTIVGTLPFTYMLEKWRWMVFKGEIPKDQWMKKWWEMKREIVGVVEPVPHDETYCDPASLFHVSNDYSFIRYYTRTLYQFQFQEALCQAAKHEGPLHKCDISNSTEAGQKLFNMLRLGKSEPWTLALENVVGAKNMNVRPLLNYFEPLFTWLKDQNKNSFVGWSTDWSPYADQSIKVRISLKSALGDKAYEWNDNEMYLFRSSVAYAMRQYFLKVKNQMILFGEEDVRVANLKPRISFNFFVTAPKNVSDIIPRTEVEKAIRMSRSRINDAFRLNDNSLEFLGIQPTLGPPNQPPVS

Binder | IC50 µM (ACE-2 cleavage of M-2195, fluorometric) [µM]
Ac-GDLHACRPVRGDPWWACTLGDPEGGG-NH2 (disulfide 6-17 (inferred); also: oxidized) [DX-513] | 0.09
Ac-GSRGFCRDSSCSFPAPGEGGG-NH2 (disulfide 6-11 (inferred); also: oxidized) [DX-525] | 1
Ac-GDGFTCSPIRMFPWFRCDLGDPEGGG-NH2 (disulfide 6-17 (inferred)) [DX-601] | 0.068
Ac-GDRYLCLPQRDKPWKFCNWFDPEGGG-NH2 (disulfide 6-17 (inferred); also: oxidized) [DX-599] | 0.14
Ac-AGSDWCGTWNNPCFHQGTEGGG-NH2 (disulfide 6-13 (inferred); also: oxidized) [DX-531] | 0.5
Ac-AGWEVCHWAPMMCKHGGTEGGG-NH2 (disulfide 6-13 (inferred); also: oxidized) [DX-529] | 0.4
Ac-AGQKECKFGYPHCLPWGTEGGG-NH2 (disulfide 6-13 (inferred); also: oxidized) [DX-530] | 30

Further lines, results first:

IC50 µM (ACE-2 cleavage of M-2195, fluorometric) [µM] | Binder
0.6 | Ac-GSRIGCRDSRCNWWAPGEGGG-NH2 (disulfide 6-11 (inferred); also: oxidized) [DX-524]
0.06 | Ac-GDRLHCKPQRQSPWMKCQHLDPEGGG-NH2 (disulfide 6-17 (inferred)) [DX-512]
0.12 | Ac-GDFSPCKALRHSPWWVCPSGDPEGGG-NH2 (disulfide 6-17 (inferred)) [DX-602]
